In patent publication US20140147418A1:

Target: B7.1 on mouse macrophages (CRL-2751) (mouse) (UniProt Q00609)
Test: flow cytometry on mouse macrophages stained with FITC anti-B7-1 after medium from naive HEK-293 cells

Chain of UniProt Q00609 (Q00609 38-306): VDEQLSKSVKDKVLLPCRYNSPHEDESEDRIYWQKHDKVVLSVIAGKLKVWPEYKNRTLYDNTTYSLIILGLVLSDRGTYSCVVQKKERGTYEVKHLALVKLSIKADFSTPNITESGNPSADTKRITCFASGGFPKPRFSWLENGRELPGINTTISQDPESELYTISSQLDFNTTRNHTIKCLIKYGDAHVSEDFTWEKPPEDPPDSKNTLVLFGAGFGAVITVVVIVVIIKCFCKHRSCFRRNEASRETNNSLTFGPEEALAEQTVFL

percent of macrophages B7-positive in the absence of CTLA4IgG: 18%
Substance: Armenian hamster IgG FITC-conjugated anti B7-1 (Santa Cruz Biotechnology) (antibody)
